Experimental data taken from paper PMC9482650, “Quantitative fragmentomics allow affinity mapping of interactomes” (Nature Communications, 2022).

T1: ARHGEF11, O15085
T1 sequence (O15085 42-136, limits assumed, looked up): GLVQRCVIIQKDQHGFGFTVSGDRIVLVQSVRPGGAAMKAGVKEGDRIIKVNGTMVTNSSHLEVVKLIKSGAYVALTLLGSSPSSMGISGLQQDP

T2: DLG3_2, Q92796
T2 sequence (Q92796 221-321, limits assumed, looked up): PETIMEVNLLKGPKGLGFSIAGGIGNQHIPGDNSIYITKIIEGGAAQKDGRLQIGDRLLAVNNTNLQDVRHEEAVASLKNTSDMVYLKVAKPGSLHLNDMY

T3: FRMPD1, Q5SYB0
T3 sequence (Q5SYB0 52-145, limits assumed, looked up): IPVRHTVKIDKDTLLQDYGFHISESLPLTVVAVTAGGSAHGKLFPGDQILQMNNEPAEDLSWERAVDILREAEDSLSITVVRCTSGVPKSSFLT

T4: LIN7A, O14910
T4 sequence (O14910 103-200, limits assumed, looked up): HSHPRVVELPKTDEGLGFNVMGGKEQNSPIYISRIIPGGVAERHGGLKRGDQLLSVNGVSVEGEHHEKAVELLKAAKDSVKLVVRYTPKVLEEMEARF

T5: MPDZ_12, O75970
T5 sequence (O75970 1857-1958, limits assumed, looked up): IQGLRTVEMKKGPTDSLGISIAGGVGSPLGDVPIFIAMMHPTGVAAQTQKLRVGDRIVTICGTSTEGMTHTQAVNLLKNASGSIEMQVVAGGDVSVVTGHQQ

T6: PCLO, Q9Y6V0
T6 sequence (Q9Y6V0 4491-4600, limits assumed, looked up): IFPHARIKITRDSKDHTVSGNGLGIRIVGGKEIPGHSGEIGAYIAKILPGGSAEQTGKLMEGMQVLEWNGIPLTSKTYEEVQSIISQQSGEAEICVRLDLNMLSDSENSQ

T7: PTPN13_1, Q12923
T7 sequence (Q12923 1088-1188, limits assumed, looked up): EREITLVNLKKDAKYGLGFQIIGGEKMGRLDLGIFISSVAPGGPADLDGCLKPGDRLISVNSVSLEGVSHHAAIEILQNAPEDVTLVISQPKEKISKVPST

T8: SHANK1, Q9Y566
T8 sequence (Q9Y566 658-767, limits assumed, looked up): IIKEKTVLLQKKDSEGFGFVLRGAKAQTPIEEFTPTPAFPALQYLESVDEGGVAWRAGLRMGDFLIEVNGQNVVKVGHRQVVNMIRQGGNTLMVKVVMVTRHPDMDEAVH

T9: TX1BP3, O14907
T9 sequence (O14907 10-122, limits assumed, looked up): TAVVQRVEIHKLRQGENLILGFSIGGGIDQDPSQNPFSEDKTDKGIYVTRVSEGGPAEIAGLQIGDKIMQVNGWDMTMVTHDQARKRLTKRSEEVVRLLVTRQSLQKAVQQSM


What follows are binders tested against T1, ARHGEF11, O15085 (assay: holdup assay). Conditions: plain residues with an end cap or a label only (N-terminal biotin on a linker: ado-ado).
Parameters: key: below the threshold = too weak to quantify, mostly under pKd 3.1 to 4

Question: For SSALYGESDL [ACTN2, P35609], which pKd is on record?
Answer: Its pKd is “below the threshold”.

Each binder was assayed against DLG1_1, Q12959 (assay: holdup assay). Conditions: plain residues with an end cap or a label only (N-terminal biotin on a linker: ado-ado).
Parameters: key: below the threshold = too weak to quantify, mostly under pKd 3.1 to 4

Question: SSALYGESDL [ACTN2, P35609] was tested. Which pKd did it give?
Answer: The pKd was “below the threshold”.

What follows are binders tested against DLG2_3, Q15700 (assay: holdup assay). Conditions: plain residues with an end cap or a label only (N-terminal biotin on a linker: ado-ado).
Parameters: key: below the threshold = too weak to quantify, mostly under pKd 3.1 to 4

Question: How did the pKd turn out when SSALYGESDL [ACTN2, P35609] was run?
Answer: Its pKd is 3.94.

Each binder was assayed against T2, DLG3_2, Q92796 (assay: holdup assay). Conditions: plain residues with an end cap or a label only (N-terminal biotin on a linker: ado-ado).
Parameters: key: below the threshold = too weak to quantify, mostly under pKd 3.1 to 4

Question: How did the pKd turn out when SSALYGESDL [ACTN2, P35609] was run?
Answer: Its pKd is 4.18.

What follows are binders tested against DLG5_1, Q8TDM6 (assay: holdup assay). Conditions: plain residues with an end cap or a label only (N-terminal biotin on a linker: ado-ado).
DLG5_1, Q8TDM6, sequence (Q8TDM6 617-713): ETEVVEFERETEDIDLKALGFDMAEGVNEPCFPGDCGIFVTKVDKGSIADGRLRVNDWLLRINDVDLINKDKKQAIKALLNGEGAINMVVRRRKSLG
Parameters: key: below the threshold = too weak to quantify, mostly under pKd 3.1 to 4

Question: SSALYGESDL [ACTN2, P35609] was tested. Which pKd did it give?
Answer: The pKd was “below the threshold”.

These binders were tested against T3, FRMPD1, Q5SYB0 (assay: holdup assay). Conditions: plain residues with an end cap or a label only (N-terminal biotin on a linker: ado-ado).
Parameters: key: below the threshold = too weak to quantify, mostly under pKd 3.1 to 4

Question: For SSALYGESDL [ACTN2, P35609], which pKd is on record?
Answer: The pKd was “below the threshold”.

Each binder was assayed against GIPC2, Q8TF65 (assay: holdup assay). Conditions: plain residues with an end cap or a label only (N-terminal biotin on a linker: ado-ado).
GIPC2, Q8TF65, sequence (Q8TF65 112-203): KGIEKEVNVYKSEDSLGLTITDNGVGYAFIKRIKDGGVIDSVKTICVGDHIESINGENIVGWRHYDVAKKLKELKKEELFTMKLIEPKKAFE
Parameters: key: below the threshold = too weak to quantify, mostly under pKd 3.1 to 4

Question: Which pKd does the source give for SSALYGESDL [ACTN2, P35609] here?
Answer: The pKd was 4.09.

What follows are binders tested against GORASP2, Q9H8Y8 (assay: holdup assay). Conditions: plain residues with an end cap or a label only (N-terminal biotin on a linker: ado-ado).
Parameters: key: below the threshold = too weak to quantify, mostly under pKd 3.1 to 4

Question: Which pKd does the source give for SSALYGESDL [ACTN2, P35609] here?
Answer: Its pKd is “below the threshold”.

These binders were tested against GRASP, Q7Z6J2 (assay: holdup assay). Conditions: plain residues with an end cap or a label only (N-terminal biotin on a linker: ado-ado).
GRASP, Q7Z6J2, sequence (Q7Z6J2 96-193): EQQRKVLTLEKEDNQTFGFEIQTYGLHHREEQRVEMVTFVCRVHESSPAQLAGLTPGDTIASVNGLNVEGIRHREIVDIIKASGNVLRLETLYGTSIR
Parameters: key: below the threshold = too weak to quantify, mostly under pKd 3.1 to 4

Question: How did the pKd turn out when SSALYGESDL [ACTN2, P35609] was run?
Answer: Its pKd is 3.93.

What follows are binders tested against GRID2IP_1, A4D2P6 (assay: holdup assay). Conditions: plain residues with an end cap or a label only (N-terminal biotin on a linker: ado-ado).
GRID2IP_1, A4D2P6, sequence (A4D2P6 1-87): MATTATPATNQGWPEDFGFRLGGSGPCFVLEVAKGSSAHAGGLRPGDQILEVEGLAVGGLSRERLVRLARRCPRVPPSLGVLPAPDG
Parameters: key: below the threshold = too weak to quantify, mostly under pKd 3.1 to 4

Question: With SSALYGESDL [ACTN2, P35609] as the binder, how does the pKd read?
Answer: The pKd was “below the threshold”.

Each binder was assayed against Inadl_1, Q8NI35 (assay: holdup assay). Conditions: plain residues with an end cap or a label only (N-terminal biotin on a linker: ado-ado).
Inadl_1, Q8NI35, sequence (Q8NI35 113-229): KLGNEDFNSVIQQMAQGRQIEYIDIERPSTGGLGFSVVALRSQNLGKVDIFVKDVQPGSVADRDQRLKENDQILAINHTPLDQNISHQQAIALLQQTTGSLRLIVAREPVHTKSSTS
Parameters: key: below the threshold = too weak to quantify, mostly under pKd 3.1 to 4

Question: SSALYGESDL [ACTN2, P35609] was tested. Which pKd did it give?
Answer: Its pKd is “below the threshold”.

What follows are binders tested against Inadl_10, Q8NI35 (assay: holdup assay). Conditions: plain residues with an end cap or a label only (N-terminal biotin on a linker: ado-ado).
Inadl_10, Q8NI35, sequence (Q8NI35 1673-1763): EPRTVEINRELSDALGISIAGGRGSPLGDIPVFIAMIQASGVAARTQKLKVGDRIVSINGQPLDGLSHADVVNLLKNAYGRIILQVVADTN
Parameters: key: below the threshold = too weak to quantify, mostly under pKd 3.1 to 4

Question: SSALYGESDL [ACTN2, P35609] was tested. Which pKd did it give?
Answer: Its pKd is “below the threshold”.

What follows are binders tested against Inadl_5, Q8NI35 (assay: holdup assay). Conditions: plain residues with an end cap or a label only (N-terminal biotin on a linker: ado-ado).
Inadl_5, Q8NI35, sequence (Q8NI35 673-780): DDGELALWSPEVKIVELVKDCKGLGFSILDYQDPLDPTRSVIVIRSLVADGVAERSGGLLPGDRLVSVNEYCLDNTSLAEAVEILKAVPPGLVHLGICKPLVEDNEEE
Parameters: key: below the threshold = too weak to quantify, mostly under pKd 3.1 to 4

Question: With SSALYGESDL [ACTN2, P35609] as the binder, how does the pKd read?
Answer: The pKd was “below the threshold”.

The binders below were run against Inadl_9, Q8NI35 (assay: holdup assay). Conditions: plain residues with an end cap or a label only (N-terminal biotin on a linker: ado-ado).
Inadl_9, Q8NI35, sequence (Q8NI35 1530-1615): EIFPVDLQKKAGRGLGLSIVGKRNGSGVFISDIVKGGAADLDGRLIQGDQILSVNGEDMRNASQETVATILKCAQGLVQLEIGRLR
Parameters: key: below the threshold = too weak to quantify, mostly under pKd 3.1 to 4

Question: With SSALYGESDL [ACTN2, P35609] as the binder, how does the pKd read?
Answer: The pKd was “below the threshold”.

What follows are binders tested against T4, LIN7A, O14910 (assay: holdup assay). Conditions: plain residues with an end cap or a label only (N-terminal biotin on a linker: ado-ado).
Parameters: key: below the threshold = too weak to quantify, mostly under pKd 3.1 to 4

Question: For SSALYGESDL [ACTN2, P35609], which pKd is on record?
Answer: Its pKd is “below the threshold”.

What follows are binders tested against LNX1_1, Q8TBB1 (assay: holdup assay). Conditions: plain residues with an end cap or a label only (N-terminal biotin on a linker: ado-ado).
LNX1_1, Q8TBB1, sequence (Q8TBB1 261-371): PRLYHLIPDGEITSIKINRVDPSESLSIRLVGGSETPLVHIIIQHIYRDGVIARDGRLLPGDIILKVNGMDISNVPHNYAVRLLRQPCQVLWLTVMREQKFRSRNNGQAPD
Parameters: key: below the threshold = too weak to quantify, mostly under pKd 3.1 to 4

Question: Which pKd does the source give for SSALYGESDL [ACTN2, P35609] here?
Answer: Its pKd is 3.86.

These binders were tested against MAGI2_2, Q86UL8 (assay: holdup assay). Conditions: plain residues with an end cap or a label only (N-terminal biotin on a linker: ado-ado).
MAGI2_2, Q86UL8, sequence (Q86UL8 410-522): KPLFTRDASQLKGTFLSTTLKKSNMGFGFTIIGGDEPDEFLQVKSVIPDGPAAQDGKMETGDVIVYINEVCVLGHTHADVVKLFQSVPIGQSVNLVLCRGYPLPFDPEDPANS
Parameters: key: below the threshold = too weak to quantify, mostly under pKd 3.1 to 4

Question: Which pKd does the source give for SSALYGESDL [ACTN2, P35609] here?
Answer: The pKd was “below the threshold”.

Each binder was assayed against MAGI2_3, Q86UL8 (assay: holdup assay). Conditions: plain residues with an end cap or a label only (N-terminal biotin on a linker: ado-ado).
MAGI2_3, Q86UL8, sequence (Q86UL8 600-682): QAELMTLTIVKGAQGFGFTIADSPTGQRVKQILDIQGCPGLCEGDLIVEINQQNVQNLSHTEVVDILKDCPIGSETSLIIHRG
Parameters: key: below the threshold = too weak to quantify, mostly under pKd 3.1 to 4

Question: Which pKd does the source give for SSALYGESDL [ACTN2, P35609] here?
Answer: The pKd was “below the threshold”.

Each binder was assayed against MAGI2_6, Q86UL8 (assay: holdup assay). Conditions: plain residues with an end cap or a label only (N-terminal biotin on a linker: ado-ado).
MAGI2_6, Q86UL8, sequence (Q86UL8 1141-1229): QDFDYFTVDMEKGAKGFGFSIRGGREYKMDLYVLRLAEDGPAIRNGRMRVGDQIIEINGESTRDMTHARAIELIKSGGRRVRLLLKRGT
Parameters: key: below the threshold = too weak to quantify, mostly under pKd 3.1 to 4

Question: How did the pKd turn out when SSALYGESDL [ACTN2, P35609] was run?
Answer: Its pKd is 5.05.

These binders were tested against MAST2, Q6P0Q8 (assay: holdup assay). Conditions: plain residues with an end cap or a label only (N-terminal biotin on a linker: ado-ado).
MAST2, Q6P0Q8, sequence (Q6P0Q8 1099-1202): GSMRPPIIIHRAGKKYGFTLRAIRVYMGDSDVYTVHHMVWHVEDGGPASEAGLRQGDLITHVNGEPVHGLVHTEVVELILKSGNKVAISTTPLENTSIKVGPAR
Parameters: key: below the threshold = too weak to quantify, mostly under pKd 3.1 to 4

Question: Which pKd does the source give for SSALYGESDL [ACTN2, P35609] here?
Answer: Its pKd is 5.52.

The binders below were run against T5, MPDZ_12, O75970 (assay: holdup assay). Conditions: plain residues with an end cap or a label only (N-terminal biotin on a linker: ado-ado).
Parameters: key: below the threshold = too weak to quantify, mostly under pKd 3.1 to 4

Question: Which pKd does the source give for SSALYGESDL [ACTN2, P35609] here?
Answer: The pKd was “below the threshold”.

The binders below were run against NHERF2_2, Q15599 (assay: holdup assay). Conditions: plain residues with an end cap or a label only (N-terminal biotin on a linker: ado-ado).
NHERF2_2, Q15599, sequence (Q15599 142-238): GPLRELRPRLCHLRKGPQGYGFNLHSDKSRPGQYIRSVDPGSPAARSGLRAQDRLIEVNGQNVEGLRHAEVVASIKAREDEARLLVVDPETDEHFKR
Parameters: key: below the threshold = too weak to quantify, mostly under pKd 3.1 to 4

Question: Which pKd does the source give for SSALYGESDL [ACTN2, P35609] here?
Answer: Its pKd is 4.35.

Each binder was assayed against NHERF4_4, Q86UT5 (assay: holdup assay). Conditions: plain residues with an end cap or a label only (N-terminal biotin on a linker: ado-ado).
NHERF4_4, Q86UT5, sequence (Q86UT5 464-550): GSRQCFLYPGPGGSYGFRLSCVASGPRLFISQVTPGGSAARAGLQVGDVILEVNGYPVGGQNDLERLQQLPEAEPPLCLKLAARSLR
Parameters: key: below the threshold = too weak to quantify, mostly under pKd 3.1 to 4

Question: Which pKd does the source give for SSALYGESDL [ACTN2, P35609] here?
Answer: The pKd was “below the threshold”.

The binders below were run against T6, PCLO, Q9Y6V0 (assay: holdup assay). Conditions: plain residues with an end cap or a label only (N-terminal biotin on a linker: ado-ado).
Parameters: key: below the threshold = too weak to quantify, mostly under pKd 3.1 to 4

Question: How did the pKd turn out when SSALYGESDL [ACTN2, P35609] was run?
Answer: Its pKd is “below the threshold”.

Each binder was assayed against PDZRN4_1, Q6ZMN7 (assay: holdup assay). Conditions: plain residues with an end cap or a label only (N-terminal biotin on a linker: ado-ado).
PDZRN4_1, Q6ZMN7, sequence (Q6ZMN7 213-318): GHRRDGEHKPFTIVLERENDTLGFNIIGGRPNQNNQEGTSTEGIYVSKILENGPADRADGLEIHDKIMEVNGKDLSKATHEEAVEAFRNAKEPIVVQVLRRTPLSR
Parameters: key: below the threshold = too weak to quantify, mostly under pKd 3.1 to 4

Question: How did the pKd turn out when SSALYGESDL [ACTN2, P35609] was run?
Answer: Its pKd is 3.62.

These binders were tested against T7, PTPN13_1, Q12923 (assay: holdup assay). Conditions: plain residues with an end cap or a label only (N-terminal biotin on a linker: ado-ado).
Parameters: key: below the threshold = too weak to quantify, mostly under pKd 3.1 to 4

Question: Which pKd does the source give for SSALYGESDL [ACTN2, P35609] here?
Answer: The pKd was “below the threshold”.

These binders were tested against PTPN3, P26045 (assay: holdup assay). Conditions: plain residues with an end cap or a label only (N-terminal biotin on a linker: ado-ado).
PTPN3, P26045, sequence (P26045 505-587): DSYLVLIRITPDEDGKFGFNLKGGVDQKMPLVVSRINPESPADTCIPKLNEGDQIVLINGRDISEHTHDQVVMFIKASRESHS
Parameters: key: below the threshold = too weak to quantify, mostly under pKd 3.1 to 4

Question: Which pKd does the source give for SSALYGESDL [ACTN2, P35609] here?
Answer: The pKd was 4.45.

What follows are binders tested against T8, SHANK1, Q9Y566 (assay: holdup assay). Conditions: plain residues with an end cap or a label only (N-terminal biotin on a linker: ado-ado).
Parameters: key: below the threshold = too weak to quantify, mostly under pKd 3.1 to 4

Question: SSALYGESDL [ACTN2, P35609] was tested. Which pKd did it give?
Answer: The pKd was 3.91.

The binders below were run against T9, TX1BP3, O14907 (assay: holdup assay). Conditions: plain residues with an end cap or a label only (N-terminal biotin on a linker: ado-ado).
Parameters: key: below the threshold = too weak to quantify, mostly under pKd 3.1 to 4

Question: How did the pKd turn out when SSALYGESDL [ACTN2, P35609] was run?
Answer: The pKd was 4.9.
